In the supplement of paper PMC9876800:

System: peptide library, one residue held at a place counted from the S/T acceptor
Test: relative phosphorylation of the sub-library (ratio to the mean residue at this position); human; higher = residue favoured
Outline: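 In 384-well plates, purified recombinant kinases (human or orthologue constructs) were incubated for 90 min under kinase-specific conditions with 50 μM biotinylated degenerate peptide sub-libraries and 50 μM ATP spiked with γ-32P-ATP. Each sub-library fixed a single residue at one position around a central Ser/Thr. Relative sub-library phosphorylation, measured by phosphorimaging and densitometry of streptavidin membrane spots, is given as a ratio to the mean residue at that position.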

CHEK2, construct: Full length, sequence (O96017 whole entry, looked up): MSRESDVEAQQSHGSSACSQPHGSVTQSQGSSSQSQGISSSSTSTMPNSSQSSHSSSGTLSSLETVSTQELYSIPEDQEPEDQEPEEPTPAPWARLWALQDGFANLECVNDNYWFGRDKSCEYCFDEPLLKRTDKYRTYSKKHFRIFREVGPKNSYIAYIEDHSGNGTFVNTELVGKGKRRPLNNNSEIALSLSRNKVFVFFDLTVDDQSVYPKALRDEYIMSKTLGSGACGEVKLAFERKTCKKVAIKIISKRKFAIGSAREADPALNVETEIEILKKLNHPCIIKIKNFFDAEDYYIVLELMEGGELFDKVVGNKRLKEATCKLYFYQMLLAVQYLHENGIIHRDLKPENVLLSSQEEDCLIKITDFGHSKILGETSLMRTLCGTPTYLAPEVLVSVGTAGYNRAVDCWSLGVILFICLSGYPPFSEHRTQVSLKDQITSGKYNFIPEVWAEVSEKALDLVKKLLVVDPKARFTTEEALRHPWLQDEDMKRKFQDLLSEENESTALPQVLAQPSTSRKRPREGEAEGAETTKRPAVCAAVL

CHEK2, construct: Full length (from UniProt O96017)
relative phosphorylation
Details | at +1 | at +2 | at +3 | at +4 | at -1 | at -2 | at -3 | at -4 | at -5
A fixed | 0.589 | 0.731 | 0.81 | 0.837 | 0.816 | 1.26 | 0.562 | 0.987 | 0.172
D fixed | 0.317 | 0.397 | 0.484 | 0.53 | 0.702 | 0.276 | 0.1 | 0.367 | 0.236
E fixed | 0.402 | 0.382 | 0.407 | 0.541 | 0.383 | 0.785 | 0.136 | 0.839 | 0.307
F fixed | 1.88 | 1.06 | 1.33 | 0.985 | 0.809 | 0.672 | 0.197 | 0.895 | 1.42
G fixed | 0.741 | 0.784 | 0.818 | 0.987 | 0.707 | 0.679 | 0.275 | 0.743 | 0.514
H fixed | 0.892 | 1.43 | 1.05 | 1.27 | 1.21 | 1.01 | 0.614 | 0.953 | 0.619
I fixed | 1.51 | 0.934 | 0.975 | 0.941 | 0.81 | 0.598 | 0.199 | 0.924 | 1.7
K fixed | 1.02 | 1.12 | 1.16 | 1.33 | 1.71 | 1.53 | 2.26 | 1.63 | 0.694
L fixed | 1.41 | 0.851 | 1.02 | 0.859 | 1.28 | 0.843 | 0.217 | 1.02 | 2.42
M fixed | 1.5 | 0.978 | 1.04 | 0.929 | 1.15 | 1.37 | 0.256 | 1.17 | 1.55
N fixed | 0.93 | 0.941 | 0.889 | 1.14 | 1.61 | 0.832 | 0.208 | 0.651 | 0.491
P fixed | 0.389 | 0.946 | 0.956 | 1.04 | 1.06 | 0.219 | 0.177 | 0.548 | 1.03
Q fixed | 0.877 | 0.801 | 0.857 | 0.945 | 0.84 | 1.71 | 0.543 | 1.09 | 0.815
R fixed | 1.34 | 1.97 | 1.53 | 1.65 | 1.63 | 2.92 | 10.5 | 2.23 | 1.52
V fixed | 1.04 | 0.875 | 0.848 | 0.731 | 0.777 | 0.621 | 0.205 | 1.1 | 1.39
W fixed | 1.07 | 1.24 | 1.44 | 1.17 | 0.587 | 0.639 | 0.284 | 0.807 | 0.914
Y fixed | 1.09 | 1.55 | 1.39 | 1.12 | 0.924 | 1.04 | 0.265 | 1.05 | 1.19
pThr fixed | 0.96 | 1.06 | 0.653 | 0.586 | 0.354 | 0.477 | 0.214 | 0.662 | 0.472
pTyr fixed | 0.529 | 0.489 | 0.659 | 0.575 | 0.603 | 0.4 | 0.178 | 0.574 | 0.725
